Our source for the EC50 values is article PMC8536012, “Selection of Specific Nanobodies against Lupine Allergen Lup an 1 for Immunoassay Development” (Foods, 2021).

The labels stand for the following.
B1: Nb B42 (His- and HA-tagged) (VHH)
VHH: QVQLQESGGGLVQAGGSLRLSCAASGRTFSSYAMGWFRQAPGKEREFVAAISWSGGSTYYADSVKGRFTISRDNAKNTVYLQMNSLKPEDTAVYYCAVDQWILEVNAAFQADYWGQGTQVTVSS
notes: also called Nb42; source: E. coli WK6 (pMECS), periplasmic, purified (IMAC, SEC)
B2: Nb B50 (His- and HA-tagged) (VHH)
VHH: QVQLQESGGGLVQAEGSLRLSCTVSGRTFSRDAMGWFRRPPGKEREFVAAISWNGASTSYADSVKGRFTVSRDNAKNTSLLQMNSLKPEDTAVYYCATYWSSAIPPLAAATSATYWGQGTQVTVSS
notes: also called Nb50; source: E. coli WK6 (pMECS), periplasmic, purified (IMAC, SEC)
B3: Nb B83 (His- and HA-tagged) (VHH)
VHH: QVQLQESGGGLVQPGGSLRLSCAASGSIFSRNDMGWYRQAVGEARILVATITSGGVTTYADSVKGRFTISRDNAKNTVYLQMNSLKPEDTAVYYCNTLTNRRNAYWGQGTQVTVSS
notes: also called Nb83; B83HA; source: E. coli WK6 (pMECS), periplasmic, purified (IMAC, SEC)
B4: Nb B165 (His- and HA-tagged) (VHH)
VHH: QVQLQESGGGLVQAGGSLRLSCAASTRTFSSDAMGWFRQAPGKEREFVAAISISTYYADSVKGRFTISRDNAKNTMYLQMNRLKPEDTAVYYCAVKPFYGGIRYPNEYPYWGQGTQVTVSS
notes: also called Nb165; source: E. coli WK6 (pMECS), periplasmic, purified (IMAC, SEC)
B5: Nb B157 (His- and HA-tagged) (VHH)
VHH: QVQLQESGGGLVQAGGSLRLSCEASGRTNTKYAWGWFRQAPGKEREFVASINWSGTLINYADSVKGRFTISRDDAKNTVYLEMSSLRPEDTAVYSCAVRYYTGTYYYTTSPDNYKHWAQGTQVTVSS
notes: also called Nb157; source: E. coli WK6 (pMECS), periplasmic, purified (IMAC, SEC)
B6: Nb B187 (His- and HA-tagged) (VHH)
VHH: QVQLQESGGGLVQAGGSLRLSCAASGRTFSGARMGWFRQAPGKEREFVAAIRWITGSTYYTDSVKGRFTISRDIAKNTQYLQMNSLKPEDTARYYCAAGEYYGGSYSDTEKYDYWGQGTQVTVSS
notes: From an immune alpaca library raised against crude lupine protein extract; also called Nb187; B187HA; source: E. coli WK6 (pMECS), periplasmic, purified (IMAC, SEC)
B7: Nb B66 (His- and HA-tagged) (VHH)
VHH: QVQLQESGGGLVQAGGSLRLSCAASGRTFSSYGIGWFRQAPGKEREFVASISWSGGSTYYADSVKGRFTISRDNAKNTVYLQMNSLKPEDTAVYYCAAVIEAIDFVPVEYDYWGQGTQVTVSS
notes: also called Nb66; source: E. coli WK6 (pMECS), periplasmic, purified (IMAC, SEC)
B8: Nb B69 (His- and HA-tagged) (VHH)
VHH: QVQLQESGGGLVQPGGSLRLSCVSSERTFSPYTMAWFRQAPGKERDFVADIRWGDGTTRYADSVKGRFTISRDNAKNTVFLQTNSLTPEDTAVYYCAHKTWYPRSFQAASYDFWGQGTQVTVSS
notes: also called Nb69; source: E. coli WK6 (pMECS), periplasmic, purified (IMAC, SEC)
B9: Nb B91 (His- and HA-tagged) (VHH)
VHH: QVQLQESGGGLVQAGDSLRLSCASSGRTFSSYGVGWFRQAPGKEREFVAAISWNGGSASYADSVKGRFTVSRDNAKNTVYLQMNSLQPEDTADYYCAAKVEALYGTDYFRDYDYWGQGTQVTVSS
notes: also called Nb91; source: E. coli WK6 (pMECS), periplasmic, purified (IMAC, SEC)
B10: Nb B163 (His- and HA-tagged) (VHH)
VHH: QVQLQESGGGLAQAGGSLTLSCAASGRTFSIPTMGWFRQAPGKEREFVAAIGRTTAYTGSVKGRFTISRDSAKNTVSLQMNSLNIEDTGVYYCASSQSPWSSPPLTENMYAYWGQGTQVTVSS
notes: also called Nb163; source: E. coli WK6 (pMECS), periplasmic, purified (IMAC, SEC)
B11: Nb B40 (His- and HA-tagged) (VHH)
VHH: QVQLQESGGGLVQAGESLRLSCATTEHANQMYAVGWFRQAPGKEREFVASINWSGTRTEHAESVKGRFTISKINPHDTVYLQMNSLKPEDTAVYACAARYYSGTYTKTDNSNDYDYWGQGTQVTVSS
notes: Detecting nanobody of the final sandwich ELISA; also called Nb40; B40HA; source: E. coli WK6 (pMECS), periplasmic, purified (IMAC, SEC)
B12: Nb B167 (His- and HA-tagged) (VHH)
VHH: QVQLQESGGGLVQAGGSLRLSCAASRRTSRNYDMTWFRQFPGTEREFVAFISWGGSRIYYADSVKGRFTISRDNAKDTVYLQMNSLKPEDTAVYYCAADPRLVRGRYESDYWGQGTQVTVSS
notes: also called Nb167; source: E. coli WK6 (pMECS), periplasmic, purified (IMAC, SEC)

The test deals with T1, Lup an 1 (Lupinus angustifolius (by the …, UniProt F5B8W3)).
T1 construct: Lup an 1, lupin β-conglutin, a 7S seed storage globulin of the vicilin-like proteins; found by LC-MS/MS of the ~55 kDa band immunocaptured from crude lupine extract; UniProt F5B8W3.1; size distribution printed as 55 to 61 kDa; Never purified: it stood in a crude lupine protein extract in every experiment; Seen as a band of ~55 kDa; also called lupin β-conglutin; lupine allergen Lup an 1; source: …
T1 sequence (F5B8W3 31-637): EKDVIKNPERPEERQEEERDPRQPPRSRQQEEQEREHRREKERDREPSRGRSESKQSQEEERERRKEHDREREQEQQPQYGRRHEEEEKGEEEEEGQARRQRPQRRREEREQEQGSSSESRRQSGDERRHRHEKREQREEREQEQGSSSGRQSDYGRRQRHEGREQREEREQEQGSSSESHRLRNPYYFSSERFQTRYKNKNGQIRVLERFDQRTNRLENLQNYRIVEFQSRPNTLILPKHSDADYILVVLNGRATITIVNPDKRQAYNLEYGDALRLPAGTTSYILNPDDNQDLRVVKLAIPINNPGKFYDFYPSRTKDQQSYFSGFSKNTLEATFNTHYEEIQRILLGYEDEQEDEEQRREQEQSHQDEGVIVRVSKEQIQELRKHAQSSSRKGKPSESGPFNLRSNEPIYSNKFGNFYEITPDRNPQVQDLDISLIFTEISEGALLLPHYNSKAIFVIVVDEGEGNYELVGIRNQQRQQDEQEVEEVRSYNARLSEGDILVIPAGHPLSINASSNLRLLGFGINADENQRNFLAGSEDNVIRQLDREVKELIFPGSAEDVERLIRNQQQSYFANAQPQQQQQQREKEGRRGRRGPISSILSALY
The experiment in a line: ELISA; crude lupine extract (50 μg/mL) coated overnight at 4 °C; Nbs serially diluted in PBS, 1 h at room temperature; detected by mouse anti-His IgG and HRP goat anti-mouse IgG; apparent affinity = concentration at half of the maximum signal. The note with it: one partner purified. On the technique in general: In an ELISA, binding on a coated surface is turned into a signal by an enzyme label.
The EC50 is the concentration that produces a half-maximal response. As to B1, the EC50 was 24 nM.

Consider B2, for which the EC50 is 16 nM. Under B3 stands 1 nM.

For the molecule B4, the EC50 was 31 nM. In the case of B5, the EC50 is 680 nM. Under B6 stands 14 nM; under B7, 180 nM; under B8, 325 nM. For the molecule B9, the EC50 turned out to be 9 nM.

Regarding B10, the EC50 came out at 45 nM. Under B11 stands 8 nM. The value for B12 was 13 nM.
